The nature of the data set: protein stability index of a GFP-peptide fusion (GPS, HEK-293T) (PSI 1-6); higher = more stable. The settings on record: c terminus: a fixed tail appended.

± gives the standard deviation.
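Also: 24-mer peptide tiles fused after GFP, lentivirally expressed, FACS-sorted into six equal bins by GFP/DsRed ratio, decoded by Illumina sequencing, PSI is the read-weighted mean bin number.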

Sequence EAFQLYQEAAQLDMLLEKLPQVAE [FLOT1] showed a protein stability index (treatment: DMSO) of 2.43 ± 0.37 and a protein stability index (treatment: MLN4924 1 uM, 8 h) of 2.69 ± 0.44.

For EAFYYIHNLVVACEIQVRTLASAG [ADD1], the protein stability index by setting is: (treatment: DMSO) 2.93 ± 0.63; (treatment: MLN4924 1 uM, 8 h) 2.98 ± 0.57.

EAPSTASSTPDSTEGGNDDSDFRE [RTN2] came in with a protein stability index (treatment: DMSO) of 5.57 ± 0.35 and a protein stability index (treatment: MLN4924 1 uM, 8 h) of 5.63 ± 0.23.

Turning to EARGIRAPPLPDSPQPLASSPGPW [FCHO1], the protein stability index is, setting by setting: (treatment: DMSO) 4.34 ± 0.28; (treatment: MLN4924 1 uM, 8 h) 4.31 ± 0.15.

Consider EATPRSLRASGSLCGPHAKAPYLC, for which the protein stability index reads like this: (treatment: DMSO) 2.77 ± 0.26; (treatment: MLN4924 1 uM, 8 h) 2.82 ± 0.23.

On to EAYLASLRADQEKERKKREERERK [FAF2], for which the protein stability index was determined as 5.33 ± 0.35 (treatment: DMSO) and 5.46 ± 0.23 (treatment: MLN4924 1 uM, 8 h).

For the sequence EAYTEHRPEITSRAINLLFDIARI [ZER1], the protein stability index is, setting by setting: (treatment: DMSO) 2.14 ± 0.18; (treatment: MLN4924 1 uM, 8 h) 2.01 ± 0.21.

With EDAEGEEEEEEEEEEEDDLSELPP [FKBP8], the protein stability index came out at 5.67 ± 0.19 (treatment: DMSO) and 5.56 ± 0.18 (treatment: MLN4924 1 uM, 8 h).

Consider EDEEPQEPNRLETGEAGEELDLRL [RTN2], for which the protein stability index was determined as 5.73 ± 0.12 (treatment: DMSO) and 5.52 ± 0.4 (treatment: MLN4924 1 uM, 8 h).

Regarding EDELSLVKGSRVTVMEKCSDGWWR [NCK2], the protein stability index was 3.68 ± 0.18 (treatment: DMSO) and 3.69 ± 0.32 (treatment: MLN4924 1 uM, 8 h).

The sequence EDKCPGNYTNPLKVQTVIILGKVI [TMEM192] yielded a protein stability index (treatment: DMSO) of 2.47 ± 1 and a protein stability index (treatment: MLN4924 1 uM, 8 h) of 2.29 ± 0.37.

EDMEASDYELEDETRPAKRITITE [WEE1]: the protein stability index runs as follows: (treatment: DMSO) 5.42 ± 0.25; (treatment: MLN4924 1 uM, 8 h) 5.36 ± 0.17.

As for EDVEAVQKLQDVLHEALQDYEAGQ [ESRRG], the protein stability index (treatment: DMSO) was 4.92 ± 0.46 and the protein stability index (treatment: MLN4924 1 uM, 8 h) came to 4.95 ± 0.51.

For EEEERLRREEEERRRIEEERLRLE [ACBD3], the protein stability index runs as follows: (treatment: DMSO) 5.61 ± 0.25; (treatment: MLN4924 1 uM, 8 h) 5.52 ± 0.12.

As for EEEGFGSSSPVKSPAAPYFLGSSF [WEE1], the protein stability index reads like this: (treatment: DMSO) 3.73 ± 0.18; (treatment: MLN4924 1 uM, 8 h) 3.77 ± 0.065.

As to EEELQEIASEPTNKHLFYAEDFST [MATN2], the protein stability index stood at 5.26 ± 0.41 (treatment: DMSO) and 5.21 ± 0.32 (treatment: MLN4924 1 uM, 8 h).

Consider EEHESGIEQFSESHAIHVEEQSDQ [IQUB], for which the protein stability index by setting is: (treatment: DMSO) 5.61 ± 0.12; (treatment: MLN4924 1 uM, 8 h) 5.56 ± 0.11.

EEVLCDSCIGNKQKAVKSCLVCQA [TRIM29]: the protein stability index was 5.52 ± 0.17 (treatment: DMSO) and 5.22 ± 0.26 (treatment: MLN4924 1 uM, 8 h).

Regarding EFFAVTRFLVGMMNGGMSLVAFVL [SLC22A15], the protein stability index reads like this: (treatment: DMSO) 2.22 ± 0.24; (treatment: MLN4924 1 uM, 8 h) 2.2 ± 0.38.

Regarding EGCTGALHILARDVHNRIVIRGLN [CTNNB1], the protein stability index is, setting by setting: (treatment: DMSO) 2.65 ± 0.23; (treatment: MLN4924 1 uM, 8 h) 2.71 ± 0.17.

As to EGKRKAFYTCASHVTVVILFFVPC [OR4A15], the protein stability index was determined as 2.77 ± 0.18 (treatment: DMSO) and 3.03 ± 0.38 (treatment: MLN4924 1 uM, 8 h).

Turning to EGSLCAAHLPKAQLSGYAVEATRN [FBF1], the protein stability index turned out to be 4.01 ± 0.17 (treatment: DMSO) and 3.99 ± 0.087 (treatment: MLN4924 1 uM, 8 h).

Turning to EGYRVSQALRENTYPFLAMIMLKD [FAF2], the protein stability index by setting is: (treatment: DMSO) 2.36 ± 0.2; (treatment: MLN4924 1 uM, 8 h) 2.44 ± 0.29.

Turning to EKEKEKHKVKAEEEKKAKVAPPAK [BRD3], the protein stability index came out at 5.38 ± 0.34 (treatment: DMSO) and 5.56 ± 0.14 (treatment: MLN4924 1 uM, 8 h).

Regarding EKINKIKWLPQQNAAHSLLSTNDK [PPP2R2C], the protein stability index reads like this: (treatment: DMSO) 4.07 ± 0.19; (treatment: MLN4924 1 uM, 8 h) 4.15 ± 0.11.

Regarding EKLNIPWNHIRLQRTAKGKPVLAK [AASDHPPT], the protein stability index (treatment: DMSO) turned out to be 3.16 ± 0.2 and the protein stability index (treatment: MLN4924 1 uM, 8 h) is 3.05 ± 0.33.

ELDDTLKYSFLQFDPAPRRGEPHV [PPP2CA]: the protein stability index reads like this: (treatment: DMSO) 3.2 ± 0.32; (treatment: MLN4924 1 uM, 8 h) 3.41 ± 0.31.

Take ELDELASKAPVLTYGQPKQAPPAD [EFHC1]: the protein stability index is, setting by setting: (treatment: DMSO) 5.44 ± 0.25; (treatment: MLN4924 1 uM, 8 h) 5.59 ± 0.15.

As to ELKVKDSQPIDLSACTVALHIFQL [TRIP13], the protein stability index runs as follows: (treatment: DMSO) 2.58 ± 0.47; (treatment: MLN4924 1 uM, 8 h) 2.15 ± 0.6.

In the case of ELQGDFSVPDVPKSMAWCENSICV [VPS39], the protein stability index is, setting by setting: (treatment: DMSO) 2.67 ± 0.22; (treatment: MLN4924 1 uM, 8 h) 2.67 ± 0.18.

Turning to ELQREWLGNREALIQFLEQVHQGI [CPN1], the protein stability index reads like this: (treatment: DMSO) 2.76 ± 0.12; (treatment: MLN4924 1 uM, 8 h) 2.97 ± 0.3.

With EMQQQMSLGELCHPVPLSFEPVKS [TRIM14], the protein stability index by setting is: (treatment: DMSO) 3.62 ± 0.22; (treatment: MLN4924 1 uM, 8 h) 4.05 ± 0.31.

As for EMREIRRKLRELQLRNCLRILMGE [BEX3], the protein stability index amounted to 2.35 ± 0.38 (treatment: DMSO) and 2.28 ± 0.38 (treatment: MLN4924 1 uM, 8 h).

The sequence ENEKLHQRVEQLTRDLAGLRQFFK [CEBPD] had a protein stability index (treatment: DMSO) of 3.01 ± 1.3 and a protein stability index (treatment: MLN4924 1 uM, 8 h) of 2.55 ± 0.28.

Regarding ENRGIVVLGINRAYGKNSLSKNLI [AUH], the protein stability index is, setting by setting: (treatment: DMSO) 2.84 ± 1.2; (treatment: MLN4924 1 uM, 8 h) 2.44 ± 1.2.

With EPDNWMKEVMLFGHGTRKRVPLGR [RSAD1], the protein stability index is, setting by setting: (treatment: DMSO) 3.69 ± 0.29; (treatment: MLN4924 1 uM, 8 h) 3.32 ± 0.15.

These data come from the supplement of paper PMC10567573.
